± gives the standard deviation of the averaged measurements.
Test system: Saccharomyces cerevisiae
Test: protein stability index of tFT-peptide fusion (C-terminal peptide) (PSI (0-1 scale)); higher = more stable (slower turnover)
Settings: genetic background: wild type; temperature: 30 C
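Also: PSI is a weighted mean of sequencing reads over stability bins, variants kept only with over 10 reads, mCherry proximal and sfGFP distal, peptide attached via GGGS linker.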

Row | Sequence | protein stability index
1 | HPAALTPVPALH | 0.661 ± 0.036
2 | TFFGEDVGVVVD | 0.69681 ± 0.00058
3 | GSRCSEAQDRSD | 0.713 ± 0.015
4 | VSSSLPVHLSLS | 0.717 ± 0.037
5 | KSLNTAGVLTGR | 0.68 ± 0.034
6 | PLPKARRHHSPA | 0.653 ± 0.033
7 | HSGAPFPPDSPR | 0.783 ± 0.16
8 | EGRRAGRVGTQV | 0.688 ± 0.024
9 | RLFIALFPPFYL | 0.64 ± 0.05
10 | LPMGTRGPAPGP | 0.73 ± 0.12
11 | RRCSCGFLCIDS | 0.672 ± 0.14
12 | LPSSVLTAAPSA | 0.661 ± 0.076
13 | PVTMWAGGKYYV | 0.718 ± 0.088
14 | GARWGWGRKGSR | 0.692 ± 0.072
15 | PPPPSPPLTRSL | 0.783 ± 0.08
16 | PPHPPPVTPHAS | 0.722 ± 0.029
17 | RAILTVVRGHLE | 0.668 ± 0.0086
18 | LRLHPSPPVPSR | 0.7003 ± 0.0047
19 | ILKQYLHRRFEF | 0.709 ± 0.057
20 | LLPSSLPFPPLR | 0.72 ± 0.06
21 | QSLITVETRIGS | 0.651 ± 0.045
22 | LLIPPLPSLAPP | 0.759 ± 0.052
23 | GPGPRAASADCP | 0.728 ± 0.08
24 | KNNKNQKELDTK | 0.677 ± 0.065
25 | LAPLYFSPFPFP | 0.689 ± 0.041

Row | Sequence | protein stability index
26 | QRSQASIPGQEV | 0.579 ± 0.091
27 | RFPLTPSPLRAT | 0.6948 ± 0.0039
28 | AAGRSNTEPGDH | 0.69 ± 0.057
29 | APPPPPPPRLTF | 0.695 ± 0.076
30 | LGVALARCLWGT | 0.677 ± 0.022
31 | PLSPPVSLPLTP | 0.672 ± 0.098
32 | RRTTGLGWSGRP | 0.644 ± 0.025
33 | LAVGAAGVLFGG | 0.776 ± 0.03
34 | GHLCVPWFGLVL | 0.659 ± 0.11
35 | SGRCGGESNDAE | 0.626 ± 0.012
36 | GLGEDVGLGLGW | 0.669 ± 0.051
37 | LHPRPPLLPSLP | 0.608 ± 0.07
38 | GHWRQCSVAEGA | 0.643 ± 0.0024
39 | ARSRLAPLSVLA | 0.548 ± 0.029
40 | LACWAGGLGWGG | 0.772 ± 0.044
41 | GRGTLLGLGLYA | 0.692 ± 0.078
42 | CFGFRVFGFVFF | 0.561 ± 0.075
43 | RPPCLRPPPPPL | 0.727 ± 0.012
44 | RPRYITQGLPLL | 0.738 ± 0.026
45 | GGGAIFDRLLCL | 0.6545 ± 0.0049
46 | GQSSVGCYNYRR | 0.676 ± 0.036
47 | SPLPPARSVPPP | 0.646 ± 0.067
48 | GRGVGACLVVVV | 0.523 ± 0.022
49 | PPPPLPPPPVLT | 0.7 ± 0.051
50 | CVFAPLFYNVYA | 0.585 ± 0.019

Row | Sequence | protein stability index
51 | VRDGGLCYLAQL | 0.667 ± 0.019
52 | PLHPPATPAATT | 0.69 ± 0.025
53 | TPKAMHPNPNTL | 0.6458 ± 0.0024
54 | WDSLGGCRARLS | 0.7 ± 0.013
55 | VLRCVLTYGKPS | 0.673 ± 0.031
56 | GVENAHLFYLYL | 0.63579 ± 0.00058
57 | PPPSCPPPPSRS | 0.7754 ± 0.0068
58 | GGPPPHHKTRPG | 0.603 ± 0.063
59 | FALYVHHSLSFG | 0.685 ± 0.02
60 | LDTVVNGAIPIL | 0.699 ± 0.051
61 | SVPYALPTTPPR | 0.676 ± 0.045
62 | RLGLSIASAPCL | 0.693 ± 0.062
63 | LLRPPAPPPLPT | 0.642 ± 0.17
64 | HRPGYLTSSASD | 0.65 ± 0.062
65 | SLGRVSRLSFQH | 0.784 ± 0.041
66 | SPTNNTSTQSQT | 0.686 ± 0.012
67 | RVQLPSRITQKA | 0.596 ± 0.023
68 | TRPKINKGKGTG | 0.6677 ± 0.0014
69 | PPLPDSPPPVPP | 0.633 ± 0.017
70 | ISRATMKARARG | 0.6522 ± 0.004
71 | CLGPTVYGRSTF | 0.728 ± 0.025
72 | FSMAHLDGGHRR | 0.676 ± 0.013
73 | LCSSASFFFSVL | 0.67 ± 0.059
74 | DVRTLGTRVMGW | 0.6769 ± 0.0057
75 | LMQTGVNNQNTT | 0.72 ± 0.035

Row | Sequence | protein stability index
76 | PGTLPDDLASTR | 0.673 ± 0.034
77 | GGDRGHVTGEVG | 0.657 ± 0.06
78 | MQNDKCWVCNQR | 0.693 ± 0.029
79 | AGEGRLGDNIKG | 0.6794 ± 0.004
80 | HGAEAWPDVGPG | 0.639 ± 0.021
81 | GGGGGVGGVGRV | 0.668 ± 0.062
82 | SPPPRATLPRPP | 0.689 ± 0.085
83 | LFPSPPPPRSSL | 0.7697 ± 0.005
84 | FSVPLMLTFPRD | 0.721 ± 0.054
85 | CLVIDDPFLVPF | 0.6988 ± 0.001
86 | FQIRGFFGLMAD | 0.754 ± 0.046
87 | PHLRPPPPPPPQ | 0.6892 ± 0.0049
88 | EVGMDLTTGPIS | 0.619 ± 0.056
89 | SSGLALGCPLGA | 0.682 ± 0.062
90 | GGAPRSSGRAGE | 0.691 ± 0.028
91 | FLRILRLTPRRP | 0.728 ± 0.036
92 | WGLGFRLVFWSV | 0.5289 ± 0.0022
93 | CLPPPARLPAPR | 0.683 ± 0.033
94 | LPSTHVPPEPLG | 0.679 ± 0.077
95 | KKKQKKKKHEQK | 0.7 ± 0.034
96 | GWPVSICGSTQN | 0.754 ± 0.058
97 | RLRQTLPTWVTT | 0.665 ± 0.015
98 | PEMELEKRNQHN | 0.716 ± 0.015
99 | PSPSTSLPPSPP | 0.684 ± 0.042
100 | TLAPSKHGSNRT | 0.666 ± 0.049

Row | Sequence | protein stability index
101 | DKRRSMSGGNMD | 0.68 ± 0.024
102 | ARPPSLLLLASF | 0.6475 ± 0.0058
103 | SPPHAPPPVPSL | 0.751 ± 0.026
104 | GWCALGVRAILY | 0.651 ± 0.0097
105 | VVCGARGDGRCE | 0.6834 ± 0.0068
106 | ASRISTAFPVPP | 0.685 ± 0.057
107 | AFRGGGVPGDFA | 0.624 ± 0.024
108 | LLSPLLLLASLS | 0.534 ± 0.013
109 | GLVRGGWGTVGG | 0.805 ± 0.24
110 | APPLPHSSSGSL | 0.698 ± 0.028
111 | RGKTIQGNADPK | 0.672 ± 0.032
112 | FWVASREVGRAY | 0.608 ± 0.041
113 | PPPTLPPPSPFP | 0.705 ± 0.038
114 | TGSRISHSPLYP | 0.671 ± 0.02
115 | CRSRRIVGPDSR | 0.669 ± 0.015
116 | KKRRPKINEIKE | 0.643 ± 0.013
117 | PLSPSFAPPSPA | 0.69672 ± 0.00044
118 | LAGNNVSFMRVR | 0.714 ± 0.059
119 | RGEVSGRVGRVG | 0.684 ± 0.058
120 | PRPFPLSCSPPV | 0.751 ± 0.083
121 | RGMVPREKHQNS | 0.683 ± 0.013
122 | IGGGPLWLVNNM | 0.6748 ± 0.0054
123 | PLYTSFSPSFYL | 0.669 ± 0.043
124 | FHLPLSSHDPLL | 0.747 ± 0.11
125 | LGLSFYPPLIIS | 0.559 ± 0.0094

Row | Sequence | protein stability index
126 | VFLISPSSFSPP | 0.738 ± 0.033
127 | LTDITGSIRNVH | 0.673 ± 0.037
128 | DAWPPVRTVVIN | 0.656 ± 0.071
129 | FLSFTSLRTKGL | 0.743 ± 0.054
130 | VGCSDFSAIVLD | 0.713 ± 0.069
131 | GDVPHRIEGEFL | 0.788 ± 0.038
132 | PDPPTQPTRRSR | 0.686 ± 0.029
133 | CSKERAPGPSSG | 0.705 ± 0.075
134 | PNLIFHHSFSFL | 0.692 ± 0.031
135 | FFLRNRPPLCGQ | 0.665 ± 0.012
136 | RRLSVPFSPSAL | 0.733 ± 0.032
137 | SGSLFVRIGGMG | 0.754 ± 0.094
138 | FRPNPCLSPCSA | 0.643 ± 0.1
139 | SGILRSLAYPPD | 0.6142 ± 0.0035
140 | ARSTGATSEHKQ | 0.667 ± 0.062
141 | GRVSAVEFWFCF | 0.615 ± 0.04
142 | FLFKLPPPPRCH | 0.678 ± 0.1
143 | SCLALLSLLIDF | 0.57 ± 0.021
144 | PLTGSLIPLFPL | 0.732 ± 0.029
145 | PPPPPVLPNRIP | 0.781 ± 0.04
146 | PFPRPAFPPYFP | 0.746 ± 0.047

— the supplement of paper PMC10724198
